Data: article PMC8996344 (Nature immunology, 2021)

B1: Roquin-1^aa2-440;E212K (domain or fragment, UniProt Q4VGL6 2-440, looked up)
chain: PVQAPQWTDFLSCPICTQTFDETIRKPISLGCGHTVCKMCLNKLHRKACPFDQTTINTDIELLPVNSALLQLVGAQIPEQQPITLCSGVEDTKHYEEAKKCVEELALYLKPLSSARGVGLNSTTQSVLSRPMQRKLVTLVHCQLVEEEGRIRAMRAARSLGERTVTELILQHQNPQQLSSNLWAAVRARGCQFLGPAMQEEALKLVLLALKDGSALSRKVLVLFVVQRLEPRFPQASKTSIGHVVQLLYRASCFKVTKRDEDSSLMQLKEEFRTYEALRREHDSQIVQIAMEAGLRIAPDQWSSLLYGDQSHKSHMQSIIDKLQTPASFAQSVQELTIALQRTGDPANLNRLRPHLELLANIDPSPDAPPPTWEQLENGLVAVRTVVHGLVDYIQNHSKKGADQQQPPQHSKYKTYMCRDMKQRGGCPRGASCTFAHSQ
B2: Roquin-1^aa2-440;L209Y (domain or fragment, UniProt Q4VGL6 2-440, looked up)
chain: PVQAPQWTDFLSCPICTQTFDETIRKPISLGCGHTVCKMCLNKLHRKACPFDQTTINTDIELLPVNSALLQLVGAQIPEQQPITLCSGVEDTKHYEEAKKCVEELALYLKPLSSARGVGLNSTTQSVLSRPMQRKLVTLVHCQLVEEEGRIRAMRAARSLGERTVTELILQHQNPQQLSSNLWAAVRARGCQFLGPAMQEEALKLVLYALEDGSALSRKVLVLFVVQRLEPRFPQASKTSIGHVVQLLYRASCFKVTKRDEDSSLMQLKEEFRTYEALRREHDSQIVQIAMEAGLRIAPDQWSSLLYGDQSHKSHMQSIIDKLQTPASFAQSVQELTIALQRTGDPANLNRLRPHLELLANIDPSPDAPPPTWEQLENGLVAVRTVVHGLVDYIQNHSKKGADQQQPPQHSKYKTYMCRDMKQRGGCPRGASCTFAHSQ
B3: Roquin-1^aa2-440;M199R (domain or fragment, UniProt Q4VGL6 2-440, looked up)
chain: PVQAPQWTDFLSCPICTQTFDETIRKPISLGCGHTVCKMCLNKLHRKACPFDQTTINTDIELLPVNSALLQLVGAQIPEQQPITLCSGVEDTKHYEEAKKCVEELALYLKPLSSARGVGLNSTTQSVLSRPMQRKLVTLVHCQLVEEEGRIRAMRAARSLGERTVTELILQHQNPQQLSSNLWAAVRARGCQFLGPARQEEALKLVLLALEDGSALSRKVLVLFVVQRLEPRFPQASKTSIGHVVQLLYRASCFKVTKRDEDSSLMQLKEEFRTYEALRREHDSQIVQIAMEAGLRIAPDQWSSLLYGDQSHKSHMQSIIDKLQTPASFAQSVQELTIALQRTGDPANLNRLRPHLELLANIDPSPDAPPPTWEQLENGLVAVRTVVHGLVDYIQNHSKKGADQQQPPQHSKYKTYMCRDMKQRGGCPRGASCTFAHSQ

These binders were tested against T1, GST–regnase-1^D141N (human, UniProt Q5D1E8 1-599, D141N) (assay: pull-down).
T1 sequence (looked up): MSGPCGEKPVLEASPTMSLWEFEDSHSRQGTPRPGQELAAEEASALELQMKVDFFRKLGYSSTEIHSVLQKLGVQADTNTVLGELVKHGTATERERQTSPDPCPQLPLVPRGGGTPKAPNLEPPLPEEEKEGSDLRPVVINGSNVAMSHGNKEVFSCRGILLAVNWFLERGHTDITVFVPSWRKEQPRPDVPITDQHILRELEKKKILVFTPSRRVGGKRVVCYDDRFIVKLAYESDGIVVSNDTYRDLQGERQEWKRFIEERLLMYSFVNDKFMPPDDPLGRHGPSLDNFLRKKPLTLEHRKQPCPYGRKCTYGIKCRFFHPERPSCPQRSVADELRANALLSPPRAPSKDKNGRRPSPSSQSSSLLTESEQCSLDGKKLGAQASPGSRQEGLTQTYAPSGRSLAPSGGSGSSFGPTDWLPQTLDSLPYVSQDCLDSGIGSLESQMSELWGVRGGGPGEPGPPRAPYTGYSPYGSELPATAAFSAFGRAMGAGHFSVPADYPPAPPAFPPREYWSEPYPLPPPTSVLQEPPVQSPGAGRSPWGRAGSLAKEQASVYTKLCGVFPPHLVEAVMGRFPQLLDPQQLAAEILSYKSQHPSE

Fold reduction of binding against SUMO–roquin-1^aa2-440 wild type, 2 fold:
B1
B2
B3
